In experiment [1] the target is T1, recombinant human IL-6 (human, UniProt P05231 30-212).
T1 construct: Bought protein
Briefly: SPR Biacore, supernatant dual inhibitor on Protein A chip, IL-6 analyte, 25 C.

Experiment [2] deals with T1, recombinant human IL-6. Briefly: SPR Biacore, purified dual inhibitor on Protein A chip, IL-6 analyte, 37 C.

In general, Kd refers to the constant that tells how readily two partners part at equilibrium. By koff is commonly meant a measure of how fast the partners let go of each other. Usually kon stands for the rate constant with which the complex forms.

T1 sequence (P05231 30-212 limits assumed): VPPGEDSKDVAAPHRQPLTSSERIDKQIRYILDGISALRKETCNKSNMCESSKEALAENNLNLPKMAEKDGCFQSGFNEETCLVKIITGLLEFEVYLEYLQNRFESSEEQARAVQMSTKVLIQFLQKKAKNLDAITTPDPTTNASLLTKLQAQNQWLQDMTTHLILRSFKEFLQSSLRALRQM

B1: dual inhibitor molecule C (VEGF Trap-AntiIL-6) (other)
heavy: SDTGRPFVEMYSEIPEIIHMTEGRELVIPCRVTSPNITVTLKKFPLDTLIPDGKRIIWDSRKGFIISNATYKEIGLLTCEATVNGHLYKTNYLTHRQTNTIIDVVLSPSHGIELSVGEKLVLNCTARTELNVGIDFNWEYPSSKHQHKKLVNRDLKTQSGSEMKKFLSTLTIDGVTRSDQGLYTCAASSGLMTKKNSTFVRVHEKGGGGSGGGGSEVQLVESGGGLVQPGGSLRLSCAASGFTFSPFAISWVRQAPGKGLEWVAKISPGGSWTYYSDTVTDRFTFSLDTSKSTAYLQMNSLRAEDTAVYYCARQLWGYYALDVWGQGTLVTVSSASTKGPSVFPLAPSSKSTSGGTAALGCLVKDYFPEPVTVSWNSGALTSGVHTFPAVLQSSGLYSLSSVVTVPSSSLGTQTYICNVNHKPSNTKVDKKVEPKSCDKTHTCPPCPAPEAAGAPSVFLFPPKPKDTLMISRTPEVTCVVVDVSHEDPEVKFNWYVDGVEVHNAKTKPREEQYNSTYRVVSVLTVLHQDWLNGKEYKCKVSNKALPAPIEKTISKAKGQPREPQVYTLPPSREEMTKNQVSLTCLVKGFYPSDIAVEWESNGQPENNYKTTPPVLDSDGSFFLYSKLTVDKSRWQQGNVFSCSVMHEALHNHYTQKSLSCSPGK
light: DIQLTQSPSSLSASVGDRVTITCSASISVSYLYWYQQKPGKAPKLLIYDDSNLASGVPSRFSGSGSGTDFTLTISSLQPEDFATYYCQQWSGYPYTFGQGTKVEIKRTVAAPSVFIFPPSDEQLKSGTASVVCLLNNFYPREAKVQWKVDNALQSGNSQESVTEQDSKDSTYSLSSTLTLSKADYEKHKVYACEVTHQGLSSPVTKSFNRGEC
notes: Trap-antibody fusion, VEGF trap at the N-terminus of the anti-IL-6 heavy chain (VH variant I); light chain variant V
As to B1, in the experiment with recombinant human IL-6 [1], the Kd is 394 pM, the koff was determined as 0.00015 s⁻¹ and the kon turned out to be 379000 M⁻¹ s⁻¹. In addition, in the experiment with recombinant human IL-6 [2], the Kd turned out to be 477 pM, the off-rate constant (koff) is 0.000481 s⁻¹ and the kon came out at 1.01e+06 M⁻¹ s⁻¹.

B2: dual inhibitor molecule E (VEGF Trap-AntiIL-6) (other)
heavy: SDTGRPFVEMYSEIPEIIHMTEGRELVIPCRVTSPNITVTLKKFPLDTLIPDGKRIIWDSRKGFIISNATYKEIGLLTCEATVNGHLYKTNYLTHRQTNTIIDVVLSPSHGIELSVGEKLVLNCTARTELNVGIDFNWEYPSSKHQHKKLVNRDLKTQSGSEMKKFLSTLTIDGVTRSDQGLYTCAASSGLMTKKNSTFVRVHEKGGGGSGGGGSEVQLVESGGGLVQPGGSLRLSCAASGFTFSPFAWSWVRQAPGKGLEWVAKISPGGSWTYYSDTVTDRFTFSLDTSKSTAYLQMNSLRAEDTAVYYCARQLWGYYALDVWGQGTLVTVSSASTKGPSVFPLAPSSKSTSGGTAALGCLVKDYFPEPVTVSWNSGALTSGVHTFPAVLQSSGLYSLSSVVTVPSSSLGTQTYICNVNHKPSNTKVDKKVEPKSCDKTHTCPPCPAPEAAGAPSVFLFPPKPKDTLMISRTPEVTCVVVDVSHEDPEVKFNWYVDGVEVHNAKTKPREEQYNSTYRVVSVLTVLHQDWLNGKEYKCKVSNKALPAPIEKTISKAKGQPREPQVYTLPPSREEMTKNQVSLTCLVKGFYPSDIAVEWESNGQPENNYKTTPPVLDSDGSFFLYSKLTVDKSRWQQGNVFSCSVMHEALHNHYTQKSLSCSPGK
light: DIQLTQSPSSLSASVGDRVTITCSASISVSYLYWYQQKPGKAPKLLIYDASSLASGVPSRFSGSGSGTDFTLTISSLQPEDFATYYCQQWSGYPYTFGQGTKVEIKRTVAAPSVFIFPPSDEQLKSGTASVVCLLNNFYPREAKVQWKVDNALQSGNSQESVTEQDSKDSTYSLSSTLTLSKADYEKHKVYACEVTHQGLSSPVTKSFNRGEC
notes: Trap-antibody fusion, VEGF trap at the N-terminus of the anti-IL-6 heavy chain (VH variant II); light chain variant IV
Consider B2, for which, in the experiment with recombinant human IL-6 [1], the Kd stood at 299 pM, the off-rate (koff) stood at 0.000151 s⁻¹ and the on-rate (kon) stood at 504000 M⁻¹ s⁻¹. In addition, in the experiment with recombinant human IL-6 [2], the Kd was found to be 424 pM, the koff stood at 0.000459 s⁻¹ and the kon is 1.08e+06 M⁻¹ s⁻¹.

B3: dual inhibitor molecule F (VEGF Trap-AntiIL-6) (other)
heavy: SDTGRPFVEMYSEIPEIIHMTEGRELVIPCRVTSPNITVTLKKFPLDTLIPDGKRIIWDSRKGFIISNATYKEIGLLTCEATVNGHLYKTNYLTHRQTNTIIDVVLSPSHGIELSVGEKLVLNCTARTELNVGIDFNWEYPSSKHQHKKLVNRDLKTQSGSEMKKFLSTLTIDGVTRSDQGLYTCAASSGLMTKKNSTFVRVHEKGGGGSGGGGSEVQLVESGGGLVQPGGSLRLSCAASGFTFSPFAWSWVRQAPGKGLEWVAKISPGGSWTYYSDTVTDRFTFSLDTSKSTAYLQMNSLRAEDTAVYYCARQLWGYYALDVWGQGTLVTVSSASTKGPSVFPLAPSSKSTSGGTAALGCLVKDYFPEPVTVSWNSGALTSGVHTFPAVLQSSGLYSLSSVVTVPSSSLGTQTYICNVNHKPSNTKVDKKVEPKSCDKTHTCPPCPAPEAAGAPSVFLFPPKPKDTLMISRTPEVTCVVVDVSHEDPEVKFNWYVDGVEVHNAKTKPREEQYNSTYRVVSVLTVLHQDWLNGKEYKCKVSNKALPAPIEKTISKAKGQPREPQVYTLPPSREEMTKNQVSLTCLVKGFYPSDIAVEWESNGQPENNYKTTPPVLDSDGSFFLYSKLTVDKSRWQQGNVFSCSVMHEALHNHYTQKSLSCSPGK
light: DIQLTQSPSSLSASVGDRVTITCSASISVSYLYWYQQKPGKAPKLLIYDDSNLASGVPSRFSGSGSGTDFTLTISSLQPEDFATYYCQQWSGYPYTFGQGTKVEIKRTVAAPSVFIFPPSDEQLKSGTASVVCLLNNFYPREAKVQWKVDNALQSGNSQESVTEQDSKDSTYSLSSTLTLSKADYEKHKVYACEVTHQGLSSPVTKSFNRGEC
notes: Trap-antibody fusion, VEGF trap at the N-terminus of the anti-IL-6 heavy chain (VH variant II); light chain variant V
Regarding B3, in the experiment with recombinant human IL-6 [1], the Kd worked out at 225 pM, the koff worked out at 0.000137 s⁻¹ and the kon turned out to be 611000 M⁻¹ s⁻¹. Also, in the experiment with recombinant human IL-6 [2], the Kd came out at 340 pM, the dissociation rate constant (koff) was determined as 0.000446 s⁻¹ and the kon is 1.31e+06 M⁻¹ s⁻¹.

B4: dual inhibitor molecule D (VEGF Trap-AntiIL-6) (other)
heavy: SDTGRPFVEMYSEIPEIIHMTEGRELVIPCRVTSPNITVTLKKFPLDTLIPDGKRIIWDSRKGFIISNATYKEIGLLTCEATVNGHLYKTNYLTHRQTNTIIDVVLSPSHGIELSVGEKLVLNCTARTELNVGIDFNWEYPSSKHQHKKLVNRDLKTQSGSEMKKFLSTLTIDGVTRSDQGLYTCAASSGLMTKKNSTFVRVHEKGGGGSGGGGSEVQLVESGGGLVQPGGSLRLSCAASGFTFSPFAWSWVRQAPGKGLEWVAKISPGGSWTYYSDTVTDRFTFSLDTSKSTAYLQMNSLRAEDTAVYYCARQLWGYYALDVWGQGTLVTVSSASTKGPSVFPLAPSSKSTSGGTAALGCLVKDYFPEPVTVSWNSGALTSGVHTFPAVLQSSGLYSLSSVVTVPSSSLGTQTYICNVNHKPSNTKVDKKVEPKSCDKTHTCPPCPAPEAAGAPSVFLFPPKPKDTLMISRTPEVTCVVVDVSHEDPEVKFNWYVDGVEVHNAKTKPREEQYNSTYRVVSVLTVLHQDWLNGKEYKCKVSNKALPAPIEKTISKAKGQPREPQVYTLPPSREEMTKNQVSLTCLVKGFYPSDIAVEWESNGQPENNYKTTPPVLDSDGSFFLYSKLTVDKSRWQQGNVFSCSVMHEALHNHYTQKSLSCSPGK
light: DIQLTQSPSSLSASVGDRVTITCSASISVSYLYWYQQKPGKAPKLLIYDDSSLASGVPSRFSGSGSGTDFTLTISSLQPEDFATYYCQQWSGYPYTFGQGTKVEIKRTVAAPSVFIFPPSDEQLKSGTASVVCLLNNFYPREAKVQWKVDNALQSGNSQESVTEQDSKDSTYSLSSTLTLSKADYEKHKVYACEVTHQGLSSPVTKSFNRGEC
notes: Trap-antibody fusion, VEGF trap at the N-terminus of the anti-IL-6 heavy chain (VH variant II); light chain variant III
Take B4: in the experiment with recombinant human IL-6 [1], the equilibrium dissociation constant (Kd) turned out to be 253 pM, the koff turned out to be 0.000109 s⁻¹ and the kon was found to be 433000 M⁻¹ s⁻¹. In the experiment with recombinant human IL-6 [2], the Kd worked out at 365 pM, the koff came out at 0.000447 s⁻¹ and the association rate constant (kon) was determined as 1.23e+06 M⁻¹ s⁻¹.

The values above are taken from patent publication US20240209076A1 (KODIAK SCIENCES, published 2024).
